Literature values as cited in article PMC2845642.
Read-outs that look alike come from different tables or passages of the source.

Tests used:
CD28 (Homo sapiens) [1] = target: CD28 (Homo sapiens) (UniProt P10747)
CD28 (Homo sapiens) [2] = target: CD28 (Homo sapiens) (UniProt P10747); remark: listed apart in the source

Question: With CD80 (from UniProt P33681) as the substance, how does the Kd (CD28 (Homo sapiens) [1]) read?
Answer: 4 µM

Question: For CD86 (from UniProt P42081), which Kd (CD28 (Homo sapiens) [2]) is on record?
Answer: 20 µM
